# According to patent publication US20190338002A1 (Pieris, published 2019):
# Numbering of substitutions follows the chain as printed.
# T1: human alpha CGRP (SEQ ID NO: 80) (human, not fully specified)
# T1 construct: also called human αCGRP; hαCGRP
# T1 peptide: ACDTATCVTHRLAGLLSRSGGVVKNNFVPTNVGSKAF
# T2: human beta CGRP (SEQ ID NO: 81) (human, not fully specified)
# T2 construct: also called human βCGRP; hβCGRP
# T2 peptide: T1 peptide with D3N, V22M, N25S
# T3: rat alpha CGRP (SEQ ID NO: 82) (rat)
# T3 construct: also called rat αCGRP; rat α-CGRP
# T3 peptide: T1 peptide with A1S, D3N, N25D, K35E
# T4: rat beta CGRP (SEQ ID NO: 83) (rat, not fully specified)
# T4 construct: also called rat βCGRP; rat β-CGRP
# T4 peptide: T1 peptide with A1S, D3N, N25D
# B1: cysteine-free lipocalin mutein SEQ ID NO: 29 (designed binder)
# chain: QDSTSDLIPAPPLSKVPLQQNFQDNQFQGKWYVVGRAGNDVLREDKDPEKMEATIYELKEDKSYNVTDVGFVQKRLMYVTHTFVPGSQPGEFTLGNIESYPGVTSALVRVVSTDYNQHAMVFVKLVKQNRELFEITLYGRTKELTSELKENFIRFSKSLGLPENHIVFPVPIDQIDGSAWSHPQFEK
# notes: biotinylated by NHS chemistry for capture in SPR
# B2: cysteine-free lipocalin mutein SEQ ID NO: 30 (designed binder)
# chain: B1 chain with L76Y
# notes: as for B1
# B3: lipocalin mutein SEQ ID NO: 27 (designed binder)
# chain: QDSTSDLIPAPPLSKVPLQQNFQDNQFHGKWYVVGWAGNTLLREDKDPIKMQAMIYELKEDKSYNVTWVYFADKKCNYHIETFVPGSQPGEFTLGTIKSYPGETPILVRVVSTNYNQHAMVFFKGVNQNREIFEIVLYGRTKELTNELKENFIRFSKSLGLPENHIVFPVPIDQCIDGSAWSHPQFEK
# notes: as for B1
# B4: lipocalin mutein SEQ ID NO: 17 (designed binder)
# chain: QDSTSDLIPAPPLSKVPLQQNFQDNQFHGKWYVVGRAGNDVLREDKDPEKMEATIYELKEDKSYNVTDVGFVQKRCMYVTHTFVPGSQPGEFTLGNIESYPGVTSALVRVVSTDYNQHAMVFVKLVKQNRELFEITLYGRTKELTSELKENFIRFSKSLGLPENHIVFPVPIDQCIDGSAWSHPQFEK
# notes: as for B1
# B5: lipocalin mutein SEQ ID NO: 25 (designed binder)
# chain: B3 chain with M54K, K62R, V136I
# notes: as for B1
# B6: lipocalin mutein SEQ ID NO: 24 (designed binder)
# chain: B3 chain with M54K, K62R, D73E, V136I
# notes: as for B1
# B7: lipocalin mutein SEQ ID NO: 26 (designed binder)
# chain: B3 chain with M54K, K62R, N77R, Y100H, V136I
# notes: as for B1
# B8: lipocalin mutein SEQ ID NO: 23 (designed binder)
# chain: B3 chain with M54K, K62R, T96L, V136I
# notes: as for B1
# B9: lipocalin mutein SEQ ID NO: 20 (designed binder)
# chain: B4 chain with V41T, E44K, R75K, T80I, E98K, D114N
# notes: as for B1
# B10: lipocalin mutein SEQ ID NO: 19 (designed binder)
# chain: B4 chain with V41T, F71L, R75K, T80I, E98K, D114N, N129S
# notes: as for B1
# B11: lipocalin mutein SEQ ID NO: 18 (designed binder)
# chain: B4 chain with G38A, E44D, K46N, R75K, T80V, E98K, D114N, V123F, I135V
# Molecular target: T1, human alpha CGRP (SEQ ID NO: 80)
# Assay: SPR as in Example 5
# Protocol: (§1) The Biotin CAPture Kit (GE Healthcare) was used to immobilize biotinylated lipocalin muteins to a chip surface. Muteins were biotinylated using standard NHS chemistry. Undiluted Biotin CAPture Reagent (streptavidin conjugated with ss-DNA oligo) was captured on a Sensor Chip CAP with the pre-immobilized complementary ss-DNA oligo. Thereafter, biotinylated muteins at 1 μg/mL were applied for 300 s at a flow rate of 5 μL/min.
# (§2) CGRP species were applied in three concentrations of 30 nM, 3 nM and 0.3 nM at a flow rate of 30 μL/min or in a single concentration of 25 nM per cycle as shown in FIG. 2. The dilutions were injected with association times of 180 s and dissociation times of 5400 sec to obtain ka and kd information. Regeneration of the chip surface was achieved by injecting 6 M Guanidinium-HCl+0.25 M NaOH (120 s) with a flow rate of 10 μL/min. Injection of regeneration solutions was followed by an extra wash step with HBS-EP+(1×; BR-1006-69; GE Healthcare) running buffer and a stabilization period of 120 s.
row,Binder,Kd [nM]
1,B1,0.065
2,B2,0.109
3,B3,0.038
4,B4,0.02

# Molecular target: T2, human beta CGRP (SEQ ID NO: 81)
# Assay: SPR as in Example 5
# Protocol: as §1, §2
row,Binder,Kd [nM]
1,B1,0.05
2,B2,0.075
3,B3,0.007
4,B4,0.003

# Molecular target: T1, human alpha CGRP (SEQ ID NO: 80)
# Assay: SPR, 37 C, mutein captured, CGRP analyte
# Protocol: as §1, §2
# (§3) The data were double-referenced by subtraction of the corresponding signals measured for the control channel (loaded with Biotin CAPture reagent only) and by subtraction of buffer injections from the binding responses. Association rate constant ka and dissociation rate constant kd for the binding reaction were determined using Biacore T200 Evaluation Software V2.0 for data processing and kinetic fitting. The data were globally fit with 1:1 binding model.
Binder,Kd [nM],koff [s⁻¹],kon [M⁻¹ s⁻¹]
B5,0.006,1.65e-05,2.68e+06
B3,0.018,2.59e-05,1.43e+06
B6,0.009,1.4e-05,1.6e+06
B7,0.013,1.99e-05,1.5e+06
B8,0.011,1.84e-05,1.64e+06
B4,0.011,3.66e-05,3.34e+06
B9,0.012,1.75e-05,1.45e+06
B10,0.005,1.07e-05,2.26e+06

# Molecular target: T3, rat alpha CGRP (SEQ ID NO: 82)
# Assay: SPR, 37 C, mutein captured, CGRP analyte
# Protocol: as §1, §2, §3
Binder,Kd [nM],koff [s⁻¹],kon [M⁻¹ s⁻¹]
B5,0.016,2.12e-05,1.3e+06
B3,0.038,3.1e-05,807000
B6,0.015,2.08e-05,1.43e+06
B7,0.015,2.01e-05,1.31e+06
B8,0.009,1.3e-05,1.39e+06
B4,0.031,8.44e-05,2.75e+06
B9,0.028,2.41e-05,867000
B10,0.024,3.02e-05,1.25e+06

# Molecular target: T4, rat beta CGRP (SEQ ID NO: 83)
# Assay: SPR, 37 C, mutein captured, CGRP analyte
# Protocol: as §1, §2, §3
Binder,Kd [nM],koff [s⁻¹],kon [M⁻¹ s⁻¹]
B5,0.008,1.33e-05,1.64e+06
B3,0.018,2.64e-05,1.5e+06
B6,0.007,1.22e-05,1.69e+06
B7,0.006,9.98e-06,1.56e+06
B8,0.008,1.34e-05,1.74e+06
B4,0.012,5.99e-05,5.18e+06
B9,0.013,1.84e-05,1.38e+06
B10,0.006,1.21e-05,2.01e+06

# Molecular target: T2, human beta CGRP (SEQ ID NO: 81)
# Assay: SPR, 37 C, mutein captured, CGRP analyte
# Protocol: as §1, §2, §3
Binder,Kd [nM],koff [s⁻¹],kon [M⁻¹ s⁻¹]
B5,0.005,1.01e-05,2.02e+06
B3,0.011,2.26e-05,2.04e+06
B6,0.004,9.01e-06,2.52e+06
B7,0.003,7.6e-06,2.44e+06
B8,0.001,4.11e-06,2.84e+06
B4,0.001,1.44e-05,1.36e+07
B9,0.004,7.89e-06,2.18e+06
B10,0.001,6.67e-06,4.56e+06

# Molecular target: T1, human alpha CGRP (SEQ ID NO: 80)
# Assay: cell-based or functional assay
row,Binder,"IC50, CGRP-induced cAMP production, SK-N-MC cells [nM]"
1,B5,0.15
2,B3,0.1
3,B6,0.12
4,B7,0.16
5,B8,0.18
6,B4,0.11
7,B11,0.19
8,B9,0.14
9,B10,0.14

# Molecular target: T3, rat alpha CGRP (SEQ ID NO: 82)
# Assay: cell-based or functional assay
row,Binder,"IC50, CGRP-induced cAMP production, L6 cells [nM]"
1,B5,0.06
2,B6,0.07
3,B7,0.05
4,B8,0.07
5,B4,0.06
6,B11,0.06
7,B9,0.08
8,B10,0.07

# Molecular target: T4, rat beta CGRP (SEQ ID NO: 83)
# Assay: cell-based or functional assay
row,Binder,"IC50, CGRP-induced cAMP production, L6 cells [nM]"
1,B5,0.16
2,B6,0.16
3,B7,0.16
4,B8,0.17
5,B4,0.11
6,B11,0.14
7,B9,0.11
8,B10,0.17

# Molecular target: T2, human beta CGRP (SEQ ID NO: 81)
# Assay: cell-based or functional assay
row,Binder,"IC50, CGRP-induced cAMP production, SK-N-MC cells [nM]"
1,B5,0.19
2,B3,0.12
3,B6,0.19
4,B7,0.26
5,B8,0.2
6,B4,0.23
7,B11,0.29
8,B9,0.17
9,B10,0.21

# Molecular target: T1, human alpha CGRP (SEQ ID NO: 80)
# Assay: cell-based or functional assay
# Remark: another data set of the same source
row,Binder,"cAMP assay IC50, SK-N-MC cells [nM]"
1,B1,0.14
2,B2,0.22
3,B3,0.1
4,B4,0.09

# Molecular target: T2, human beta CGRP (SEQ ID NO: 81)
# Assay: cell-based or functional assay
# Remark: another data set of the same source
row,Binder,"cAMP assay IC50, SK-N-MC cells [nM]"
1,B1,0.91
2,B2,1.32
3,B3,0.12
4,B4,0.13
